Test results reported in US20170114420.

Columns and labels:
Experiment in all cases: ELONA
[1] = tested on: Norovirus GII.17 VLP, capsid protein VP1 (Norovirus GII.17); details: 1 uM aptamer, RT
[2] = tested on: Norovirus GII.4 (Grimsby) VLP, capsid protein VP1 (Norovirus GII.4 Grimsby); details: 1 uM aptamer, RT
[3] = tested on: Norovirus GI.8 VLP, capsid protein VP1 (Norovirus GI.8); details: 1 uM aptamer, RT
[4] = tested on: Norovirus GII.3 VLP, capsid protein VP1 (Norovirus GII.3); details: 1 uM aptamer, RT
[5] = tested on: Norovirus GI.6 VLP, capsid protein VP1 (Norovirus GI.6); details: 1 uM aptamer, RT
[6] = tested on: Norovirus GII.12 VLP, capsid protein VP1 (Norovirus GII.12); details: 1 uM aptamer, RT
[7] = tested on: Norovirus GI.7 VLP, capsid protein VP1 (Norovirus GI.7); details: 1 uM aptamer, RT
[8] = tested on: Norovirus GII.4 (Houston) VLP, capsid protein VP1 (Norovirus GII.4 Houston); details: 1 uM aptamer, RT
[9] = tested on: Norovirus GII.1 VLP, capsid protein VP1 (Norovirus GII.1); details: 1 uM aptamer, RT
[10] = tested on: Norovirus GII.6 VLP, capsid protein VP1 (Norovirus GII.6); details: 1 uM aptamer, RT
[11] = tested on: Norovirus GII.7 VLP, capsid protein VP1 (Norovirus GII.7); details: 1 uM aptamer, RT
[12] = tested on: Norovirus GI.4 VLP, capsid protein VP1 (Norovirus GI.4); details: 1 uM aptamer, RT
[13] = tested on: Norovirus GII.4 (Sydney) VLP, heat-denatured (80 C, 5 min) (Norovirus GII.4 Sydney); details: VLP denatured 80 C 5 min

AGTATACGTATTACCTGCAGCCACCAGTGTGTTGAGGTTTGAGCACACTGATAGAGTGTCACGATATCTCGGAGATCTTGC [SMV-19]
binding signal [1]: 3 T/N ratio
binding signal [2]: 9.6 T/N ratio
binding signal [3]: 1.7 T/N ratio
binding signal [4]: 1.7 T/N ratio
binding signal [5]: 3.7 T/N ratio
binding signal [6]: 1.5 T/N ratio
binding signal [7]: 10.3 T/N ratio
binding signal [8]: 12.5 T/N ratio
binding signal [9]: 7.1 T/N ratio
binding signal [10]: 1.8 T/N ratio
binding signal [11]: 4 T/N ratio
binding signal [12]: 1.7 T/N ratio

AGTATACGTATTACCTGCAGCCATCTGTGTGAAGACTATATGGCGCTCACATATTTCTTTCCGATATCTCGGAGATCTTGC [SMV-25]
binding signal [1]: 2 T/N ratio
binding signal [2]: 10.4 T/N ratio
binding signal [3]: 6.2 T/N ratio
binding signal [4]: 5.4 T/N ratio
binding signal [5]: 2.4 T/N ratio
binding signal [6]: 1.9 T/N ratio
binding signal [7]: 3.5 T/N ratio
binding signal [8]: 11 T/N ratio
binding signal [9]: 9.4 T/N ratio
binding signal [10]: 7.3 T/N ratio
binding signal [11]: 9.1 T/N ratio
binding signal [12]: 5.6 T/N ratio

AGTATACGTATTACCTGCAGCCCATGTTTTGTAGGTGTAATAGGTCATGTTAGGGTTTCTGCGATATCTCGGAGATCTTGC [SMV-21]
binding signal [1]: 12.2 T/N ratio
binding signal [2]: 6.4 T/N ratio
binding signal [3]: 4.6 T/N ratio
binding signal [4]: 11.8 T/N ratio
binding signal [5]: 3.8 T/N ratio
binding signal [6]: 6.6 T/N ratio
binding signal [7]: 8.1 T/N ratio
binding signal [8]: 11.3 T/N ratio
binding signal [9]: 8.6 T/N ratio
binding signal [10]: 3 T/N ratio
binding signal [11]: 13.5 T/N ratio
binding signal [12]: 4.3 T/N ratio

AGTATACGTATTACCTGCAGCTGACCGAGTGTCTGGTCATTTTCGATGTCTGTTGTTAGGCCGATATCTCGGAGATCTTGC [SMV-26]
binding signal [1]: 1.3 T/N ratio
binding signal [2]: 3.2 T/N ratio
binding signal [3]: 1.2 T/N ratio
binding signal [4]: 2.4 T/N ratio
binding signal [5]: 1.5 T/N ratio
binding signal [6]: 2.4 T/N ratio
binding signal [7]: 1.8 T/N ratio
binding signal [8]: 2.8 T/N ratio
binding signal [9]: 2.1 T/N ratio
binding signal [10]: 2.8 T/N ratio
binding signal [11]: 2.8 T/N ratio
binding signal [12]: 1.1 T/N ratio

AGTATACGTATTACCTGCAGCTGGGAAGAGGTCCGGTAAATGCAGGGTCAGCCCGGAGAGCGATATCTCGGAGATCTTGC [M6-2]
binding signal (VLP/no VLP ratio) [1]: 5.24
binding signal (VLP/no VLP ratio) [2]: 11.5
binding signal (VLP/no VLP ratio) [3]: 4.55
binding signal (VLP/no VLP ratio) [4]: 3.16
binding signal (VLP/no VLP ratio) [5]: 2.75
binding signal (VLP/no VLP ratio) [6]: 5.55
binding signal (VLP/no VLP ratio) [7]: 7.56
binding signal (VLP/no VLP ratio) [8]: 13
binding signal (VLP/no VLP ratio) [9]: 4.52
binding signal (VLP/no VLP ratio) [10]: 4.4
binding signal (VLP/no VLP ratio) [11]: 8.02
binding signal (VLP/no VLP ratio) [12]: 3.36
binding signal (% of untreated VLP signal) [13]: 1.98

AGTATACGTATTACCTGCAGCTGTTTATGGGGATAAACGTATCTAATTCGTGTACTAATCACGATATCTCGGAGATCTTGC [M1]
binding signal (VLP/no VLP ratio) [1]: 3.94
binding signal (VLP/no VLP ratio) [2]: 7.59
binding signal (VLP/no VLP ratio) [3]: 2.61
binding signal (VLP/no VLP ratio) [4]: 2.94
binding signal (VLP/no VLP ratio) [5]: 1.98
binding signal (VLP/no VLP ratio) [6]: 4.47
binding signal (VLP/no VLP ratio) [7]: 7.32
binding signal (VLP/no VLP ratio) [8]: 10.4
binding signal (VLP/no VLP ratio) [9]: 3.59
binding signal (VLP/no VLP ratio) [10]: 2.38
binding signal (VLP/no VLP ratio) [11]: 7.47
binding signal (VLP/no VLP ratio) [12]: 3.17
